# B1: Cell adhesion molecule CEACAM8 (Homo sapiens), P31997 (parent)
# chain: MGPISAPSCRWRIPWQGLLLTASLFTFWNPPTTAQLTIEAVPSNAAEGKEVLLLVHNLPQDPRGYNWYKGETVDANRRIIGYVISNQQITPGPAYSNRETIYPNASLLMRNVTRNDTGSYTLQVIKLNLMSEEVTGQFSVHPETPKPSISSNNSNPVEDKDAVAFTCEPETQNTTYLWWVNGQSLPVSPRLQLSNGNRTLTLLSVTRNDVGPYECEIQNPASANFSDPVTLNVLYGPDAPTISPSDTYYHAGVNLNLSCHAASNPPSQYSWSVNGTFQQYTQKLFIPNITTKNSGSYACHTTNSATGRNRTTVRMITVSDALVQGSSPGLSARATVSIMIGVLARVALI
# B2: Cell adhesion molecule CEACAM6 (Homo sapiens), P40199 (parent)
# chain: MGPPSAPPCRLHVPWKEVLLTASLLTFWNPPTTAKLTIESTPFNVAEGKEVLLLAHNLPQNRIGYSWYKGERVDGNSLIVGYVIGTQQATPGPAYSGRETIYPNASLLIQNVTQNDTGFYTLQVIKSDLVNEEATGQFHVYPELPKPSISSNNSNPVEDKDAVAFTCEPEVQNTTYLWWVNGQSLPVSPRLQLSNGNMTLTLLSVKRNDAGSYECEIQNPASANRSDPVTLNVLYGPDVPTISPSKANYRPGENLNLSCHAASNPPAQYSWFINGTFQQSTQELFIPNITVNNSGSYMCQAHNSATGLNRTTVTMITVSGSAPVLSAVATVGITIGVLARVALI
# Variants of: B1
# Conditions: with ceam6_human CEACAM6, P40199
row,effect of a mutation on the interaction,Variant
1,with no effect,Q123A
2,disrupting interaction strength,R77A
3,disrupting interaction strength,L129A

# Variants of: B2
# Conditions: with ceam8_human CEACAM8, P31997
row,effect of a mutation on the interaction,Variant
1,with no effect,L78A
2,disrupting interaction strength,I63A
3,with no effect,Q123A
4,disrupting interaction strength,L129A

# — IntAct's records for PubMed 26483485
